Reference: article PMC7085636, “A Graphene-PEDOT:PSS Modified Paper-Based Aptasensor for Electrochemical Impedance Spectroscopy Detection of Tumor Marker”

Target: carcinoembryonic antigen (CEA) (UniProt P06731 35-685)
Assay: electrochemical impedance spectroscopy (aptasensor); PBS; linear 0.77-14 ng/mL, LOD 0.45 ng/mL, saturated above 21 ng/mL; PBS pH 7.4 or undiluted human serum; surface blocked with 1% BSA; K3[Fe(CN)6] and KCl listed as reagents; binding temperature not stated
Settings: protein: commercial

Sequence of carcinoembryonic antigen (CEA) (P06731 35-685): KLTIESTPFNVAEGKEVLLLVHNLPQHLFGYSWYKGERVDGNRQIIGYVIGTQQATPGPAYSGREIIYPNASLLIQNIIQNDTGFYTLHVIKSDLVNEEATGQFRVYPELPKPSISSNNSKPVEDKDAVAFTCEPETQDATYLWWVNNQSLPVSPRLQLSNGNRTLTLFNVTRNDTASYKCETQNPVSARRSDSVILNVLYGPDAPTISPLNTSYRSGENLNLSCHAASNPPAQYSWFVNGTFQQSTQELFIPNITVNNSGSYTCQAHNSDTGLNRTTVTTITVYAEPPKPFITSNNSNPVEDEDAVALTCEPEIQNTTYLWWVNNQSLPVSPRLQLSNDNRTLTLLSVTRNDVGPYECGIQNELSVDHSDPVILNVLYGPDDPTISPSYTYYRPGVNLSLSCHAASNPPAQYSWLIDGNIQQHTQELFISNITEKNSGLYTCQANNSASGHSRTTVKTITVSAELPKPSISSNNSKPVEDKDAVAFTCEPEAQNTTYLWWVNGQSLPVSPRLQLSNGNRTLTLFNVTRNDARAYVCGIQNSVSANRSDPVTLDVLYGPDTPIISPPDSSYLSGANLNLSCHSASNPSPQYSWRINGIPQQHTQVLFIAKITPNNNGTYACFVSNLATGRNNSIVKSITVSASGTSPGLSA

B1: CEA DNA aptamer (ssDNA)
DNA: GACGATAGCGGTGACGGCACAGACGTCCCGCATCCTCCG
modifications: 5'-NH2
- binding result: binds
